Source: publication PMC10164551, “Structural basis of tRNAPro acceptor stem recognition by a bacterial trans-editing domain”

Tests used:
ProXp-ala WT [1] = target: T1, ProXp-ala WT (Caulobacter crescentus, UniProt Q9ABV9 1-168); experiment: EMSA; apparent, Hill fit; EMSA: 81 nM duplex annealed in 50 mM sodium phosphate pH 7.5, 150 mM NaCl, 0-114 μM protein, 1 h room temp, 16% native gel in TBE; NMR: same phosphate buffer, 1; conditions: protein: recombinant, tags: N-terminal His6 removed by thrombin, leaves Gly-Ser-His, label: 3' 6FAM on strand 1
T1 sequence: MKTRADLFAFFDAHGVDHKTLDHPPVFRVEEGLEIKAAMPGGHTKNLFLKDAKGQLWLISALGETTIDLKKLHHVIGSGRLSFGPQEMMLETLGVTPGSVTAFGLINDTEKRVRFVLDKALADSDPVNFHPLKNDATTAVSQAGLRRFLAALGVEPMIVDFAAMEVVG

ProXp-ala WT [2] = target: T1, ProXp-ala WT; experiment: NMR; 100 μM each; EMSA: 81 nM duplex annealed in 50 mM sodium phosphate pH 7.5, 150 mM NaCl, 0-114 μM protein, 1 h room temp, 16% native gel in TBE; NMR: same phosphate buffer, 1; conditions: protein: recombinant; tags: N-terminal His6 removed by thrombin; leaves Gly-Ser-His; hairpin; 7 bp stem, 3' ACCA single-stranded
ProXp-ala WT [3] = target: T1, ProXp-ala WT; experiment: NMR; 100 μM each; indistinguishable from microhelixPro; EMSA: 81 nM duplex annealed in 50 mM sodium phosphate pH 7.5, 150 mM NaCl, 0-114 μM protein, 1 h room temp, 16% native gel in TBE; NMR: same phosphate buffer, 1; conditions: protein: recombinant; tags: N-terminal His6 removed by thrombin; leaves Gly-Ser-His; hairpin; 12 bp stem, 3' ACCA single-stranded

B1: duplexPro A76 (WT) (dsRNA)
RNA 1: CGGCGAGGGAGGUU
RNA 2: AUCCUCUCUCGCCGACCA
Kd (ProXp-ala WT [1]; 3' overhang 4 nt (ACCA) on strand 2): 33 ± 11 µM

B2: duplexPro dA76 (dsRNA)
RNA 1: CGGCGAGGGAGGUU
RNA 2: AUCCUCUCUCGCCGACCA
modifications: 2'-deoxy-A at 3' terminus of strand 2
Kd (ProXp-ala WT [1]; 3' overhang 4 nt on strand 2): 34 ± 5 µM

B3: microhelixPro (structured_RNA)
RNA: CGGCGAGUUCGCUCGCCGACCA
binding result (ProXp-ala WT [2]): binds

B4: minihelixPro (structured_RNA)
RNA: CGGCGAGGGAGGUUCGAAUCCUCUCUCGCCGACCA
binding result (ProXp-ala WT [3]): binds

B5: duplexPro ΔA76 (dsRNA)
RNA 1: CGGCGAGGGAGGUU
RNA 2: AUCCUCUCUCGCCGACC
Kd (ProXp-ala WT [1]; 3' overhang 3 nt on strand 2): 75 ± 12 µM

B6: duplexPro 3'pΔA76 (dsRNA)
RNA 1: CGGCGAGGGAGGUU
RNA 2: AUCCUCUCUCGCCGACC
modifications: 3' phosphate on terminal C of strand 2
Kd (ProXp-ala WT [1]; 3' overhang 3 nt on strand 2): 63 ± 11 µM

B7: duplexPro A76C (dsRNA)
RNA 1: CGGCGAGGGAGGUU
RNA 2: AUCCUCUCUCGCCGACCC
Kd (ProXp-ala WT [1]; 3' overhang 4 nt on strand 2): 87 ± 4 µM

B8: duplexPro A76G (dsRNA)
RNA 1: CGGCGAGGGAGGUU
RNA 2: AUCCUCUCUCGCCGACCG
Kd (ProXp-ala WT [1]; 3' overhang 4 nt on strand 2): 66 ± 11 µM

B9: duplexPro A76U (dsRNA)
RNA 1: CGGCGAGGGAGGUU
RNA 2: AUCCUCUCUCGCCGACCU
Kd (ProXp-ala WT [1]; 3' overhang 4 nt on strand 2): 106 ± 16 µM
